According to IntAct's records for PubMed 16785445:

B1: Interferon-induced, double-stranded RNA-activated protein kinase (Homo sapiens), P19525 (parent)
chain: MAGDLSAGFFMEELNTYRQKQGVVLKYQELPNSGPPHDRRFTFQVIIDGREFPEGEGRSKKEAKNAAAKLAVEILNKEKKAVSPLLLTTTNSSEGLSMGNYIGLINRIAQKKRLTVNYEQCASGVHGPEGFHYKCKMGQKEYSIGTGSTKQEAKQLAAKLAYLQILSEETSVKSDYLSSGSFATTCESQSNSLVTSTLASESSSEGDFSADTSEINSNSDSLNSSSLLMNGLRNNQRKAKRSLAPRFDLPDMKETKYTVDKRFGMDFKEIELIGSGGFGQVFKAKHRIDGKTYVIKRVKYNNEKAEREVKALAKLDHVNIVHYNGCWDGFDYDPETSDDSLESSDYDPENSKNSSRSKTKCLFIQMEFCDKGTLEQWIEKRRGEKLDKVLALELFEQITKGVDYIHSKKLIHRDLKPSNIFLVDTKQVKIGDFGLVTSLKNDGKRTRSKGTLRYMSPEQISSQDYGKEVDLYALGLILAELLHVCDTAFETSKFFTDLRDGIISDIFDKKEKTLLQKLLSKKPEDRPNTSEILRTLTVWKKSPEKNERHTC
partner: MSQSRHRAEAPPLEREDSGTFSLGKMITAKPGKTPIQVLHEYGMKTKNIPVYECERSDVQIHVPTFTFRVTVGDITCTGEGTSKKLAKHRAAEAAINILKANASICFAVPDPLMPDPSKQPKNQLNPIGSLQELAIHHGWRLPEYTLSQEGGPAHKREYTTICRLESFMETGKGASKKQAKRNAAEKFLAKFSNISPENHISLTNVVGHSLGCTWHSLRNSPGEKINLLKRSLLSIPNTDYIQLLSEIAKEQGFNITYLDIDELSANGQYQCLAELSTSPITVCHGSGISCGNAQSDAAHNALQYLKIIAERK

Variants of: B1
Settings: with PRKRA

Effect of a mutation on the interaction, disrupting interaction strength:
MAGDLSAGFFMEELNTYRQKQGVVLKYQELPNSGPPHDRRFTFQVIIDGREFPEGEGRSKKEAKNAAAKLAVEILNKEKKAVSPLLLTTTNSSEGLSMGNYIGLINRIAQKKRLTVNYEQCASGVHGPEGFHYKCKMGQKEYSIGTGSTKQEAKQLAAKLAYLQILSEETSVKSDYLSSGSFATTCESQSNSLVTSTLASESSSEGDFSADTSEINSNSDSLNSSSLLMNGLRNNQRKAKRSLAPRFDLPDMKETKYTVDKRFGMDFKEIELIGSGGFGQVFKAKHRIDGKTYVIKRVKYNNEKAEREVKALAKLDHVNIVHYNGCWAGFDYDPETSDDSLESSDYDPENSKNSSRSKTKCLFIQMEFCDKGTLEQWIEKRRGEKLDKVLALELFEQITKGVDYIHSKKLIHRDLKPSNIFLVDTKQVKIGDFGLVTSLKNDGKRTRSKGTLRYMSPEQISSQDYGKEVDLYALGLILAELLHVCDTAFETSKFFTDLRDGIISDIFDKKEKTLLQKLLSKKPEDRPNTSEILRTLTVWKKSPEKNERHTC [D328A]
MAGDLSAGFFMEELNTYRQKQGVVLKYQELPNSGPPHDRRFTFQVIIDGREFPEGEGRSKKEAKNAAAKLAVEILNKEKKAVSPLLLTTTNSSEGLSMGNYIGLINRIAQKKRLTVNYEQCASGVHGPEGFHYKCKMGQKEYSIGTGSTKQEAKQLAAKLAYLQILSEETSVKSDYLSSGSFATTCESQSNSLVTSTLASESSSEGDFSADTSEINSNSDSLNSSSLLMNGLRNNQRKAKRSLAPRFDLPDMKETKYTVDKRFGMDFKEIELIGSGGFGQVFKAKHRIDGKTYVIKRVKYNNEKAEREVKALAKLDHVNIVHYNGCWDGFDYAPETSDDSLESSDYDPENSKNSSRSKTKCLFIQMEFCDKGTLEQWIEKRRGEKLDKVLALELFEQITKGVDYIHSKKLIHRDLKPSNIFLVDTKQVKIGDFGLVTSLKNDGKRTRSKGTLRYMSPEQISSQDYGKEVDLYALGLILAELLHVCDTAFETSKFFTDLRDGIISDIFDKKEKTLLQKLLSKKPEDRPNTSEILRTLTVWKKSPEKNERHTC [D333A]
MAGDLSAGFFMEELNTYRQKQGVVLKYQELPNSGPPHDRRFTFQVIIDGREFPEGEGRSKKEAKNAAAKLAVEILNKEKKAVSPLLLTTTNSSEGLSMGNYIGLINRIAQKKRLTVNYEQCASGVHGPEGFHYKCKMGQKEYSIGTGSTKQEAKQLAAKLAYLQILSEETSVKSDYLSSGSFATTCESQSNSLVTSTLASESSSEGDFSADTSEINSNSDSLNSSSLLMNGLRNNQRKAKRSLAPRFDLPDMKETKYTVDKRFGMDFKEIELIGSGGFGQVFKAKHRIDGKTYVIKRVKYNNEKAEREVKALAKLDHVNIVHYNGCWDGFDADPETSDDSLESSDYDPENSKNSSRSKTKCLFIQMEFCDKGTLEQWIEKRRGEKLDKVLALELFEQITKGVDYIHSKKLIHRDLKPSNIFLVDTKQVKIGDFGLVTSLKNDGKRTRSKGTLRYMSPEQISSQDYGKEVDLYALGLILAELLHVCDTAFETSKFFTDLRDGIISDIFDKKEKTLLQKLLSKKPEDRPNTSEILRTLTVWKKSPEKNERHTC [Y332A]
MAGDLSAGFFMEELNTYRQKQGVVLKYQELPNSGPPHDRRFTFQVIIDGREFPEGEGRSKKEAKNAAAKLAVEILNKEKKAVSPLLLTTTNSSEGLSMGNYIGLINRIAQKKRLTVNYEQCASGVHGPEGFHYKCKMGQKEYSIGTGSTKQEAKQLAAKLAYLQILSEETSVKSDYLSSGSFATTCESQSNSLVTSTLASESSSEGDFSADTSEINSNSDSLNSSSLLMNGLRNNQRKAKRSLAPRFDLPDMKETKYTVDKRFGMDFKEIELIGSGGFGQVFKAKHRIDGKTYVIKRVKYNNEKAEREVKALAKLDHVNIVHYNGCWDAFDYDPETSDDSLESSDYDPENSKNSSRSKTKCLFIQMEFCDKGTLEQWIEKRRGEKLDKVLALELFEQITKGVDYIHSKKLIHRDLKPSNIFLVDTKQVKIGDFGLVTSLKNDGKRTRSKGTLRYMSPEQISSQDYGKEVDLYALGLILAELLHVCDTAFETSKFFTDLRDGIISDIFDKKEKTLLQKLLSKKPEDRPNTSEILRTLTVWKKSPEKNERHTC [G329A]
MAGDLSAGFFMEELNTYRQKQGVVLKYQELPNSGPPHDRRFTFQVIIDGREFPEGEGRSKKEAKNAAAKLAVEILNKEKKAVSPLLLTTTNSSEGLSMGNYIGLINRIAQKKRLTVNYEQCASGVHGPEGFHYKCKMGQKEYSIGTGSTKQEAKQLAAKLAYLQILSEETSVKSDYLSSGSFATTCESQSNSLVTSTLASESSSEGDFSADTSEINSNSDSLNSSSLLMNGLRNNQRKAKRSLAPRFDLPDMKETKYTVDKRFGMDFKEIELIGSGGFGQVFKAKHRIDGKTYVIKRVKYNNEKAEREVKALAKLDHVNIVHYNGCWDGFAYDPETSDDSLESSDYDPENSKNSSRSKTKCLFIQMEFCDKGTLEQWIEKRRGEKLDKVLALELFEQITKGVDYIHSKKLIHRDLKPSNIFLVDTKQVKIGDFGLVTSLKNDGKRTRSKGTLRYMSPEQISSQDYGKEVDLYALGLILAELLHVCDTAFETSKFFTDLRDGIISDIFDKKEKTLLQKLLSKKPEDRPNTSEILRTLTVWKKSPEKNERHTC [D331A]
